Here are results for 4 molecules from PMC4690014, “Functional Analysis of Cotton Leaf Curl Kokhran Virus/Cotton Leaf Curl Multan Betasatellite RNA Silencing Suppressors”.

Data set [1] addresses TrAP (Trx-His fusion) (Cotton leaf curl Kokhran virus, UniProt O72711 1-134). Kind of data set: EMSA. Conditions: protein: recombinant; tags: N-terminal Trx-His (pET32a); label: 5'-32P.
In data set [2] the target is V2 (Trx-His fusion) (Cotton leaf curl Kokhran virus, UniProt Q6JIB8 1-118). Kind of data set: EMSA. As to conditions: protein: recombinant; tags: N-terminal Trx-His (pET32a); label: 5'-32P. (In EMSA bound probe runs differently from free probe, usually more slowly.)

In the case of AGAGTGCCATGCCCGAAGGTT (ssDNA) [21 nt ssDNA], the binding result in data set [1] is reported as “binds”.

With AGAGUGCCAUGCCCGAAGGUU (ssRNA) [21 nt ssRNA], in data set [1], the binding result was “binds”.

Take AGAGUGCCAUGCCCGAAGGUUAUU (ssRNA) [24 nt ssRNA]: the binding result in data set [1] was “binds”.

B1: 69 nt ssDNA (SalI-XbaI-HA-Tag oligo, by length) (ssDNA)
DNA: GCGTCGACGTCTTGCTCTAGAGATGTATCCATATGATGTTCCGGATTACGCGGAACGAGCTATACAAGG
As for B1, the binding result in data set [1] and in data set [2] was “binds” in each case.
